Values of other authors, collected in PMC8910669.

Target: SARS-CoV-2 spike RBD RBD (Severe acute respiratory syndrome coronavirus 2) (UniProt P0DTC2)

Substance: hBD-2 (from UniProt O15263)
- Kd: 300 nM
